Here are results for one molecule from US20260159579A1 (Pfizer, published 2026).

“And” between values parts separate entries of the source, which are not always exact repeats. Identical values can stand only once.

In assay [1] the target is T1, Mouse Fc-human GDF15 (Mu IgG1Fc_Fxa_Hu GDF15) (human).
T1 construct: Whole entry is the fusion: mouse IgG1 Fc, FXa site and linker, mature human GDF15; described as dimeric; also called Murine dimeric IgG1 Fc-human GDF-15 with FXa cleavage site; control human GDF15
T1 chain: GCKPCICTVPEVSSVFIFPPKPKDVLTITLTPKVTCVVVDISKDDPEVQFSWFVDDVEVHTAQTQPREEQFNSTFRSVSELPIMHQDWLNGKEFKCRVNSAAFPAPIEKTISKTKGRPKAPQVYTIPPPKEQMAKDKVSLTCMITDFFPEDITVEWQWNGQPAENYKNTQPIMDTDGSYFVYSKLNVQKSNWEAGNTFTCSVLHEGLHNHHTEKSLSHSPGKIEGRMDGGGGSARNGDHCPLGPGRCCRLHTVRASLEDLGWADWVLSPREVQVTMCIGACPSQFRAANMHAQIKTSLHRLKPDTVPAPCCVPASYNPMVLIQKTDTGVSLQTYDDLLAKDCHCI
The assay is described as follows: SPR BIAcore T200, 37C; Fc-GDF15 captured, monomeric Fc-Fab as analyte; human GDF15 ligand (Mu IgG1Fc_Fxa_Hu GDF15), first run. An excerpt: (§1) To understand the KD value, without the avidity effect, of GDF15_001 binding to GDF15, monomeric Fc-Fab was produced and tested in the same assay used in Example 2. […] Mu IgG1Fc_Fxa_Hu GDF15, Mu IgG1Fc_Fxa_Mu GDF15 and Mu IgG1Fc_Fxa_Cyno GDF15 were captured onto three different flow cells of a CM4 sensorchip (catalogue number BR100534, GE Healthcare) surface using the Mouse Antibody Capture Kit (BR100838, GE Healthcare) according to the manufacturer's protocol. The running and sample buffer was 10 mM HEPES pH 7.4, 0.15M NaCl, 3 mM EDTA, 0.05% P-20 (HBS-EP+). The final capture levels of Mu IgG1Fc_Fxa_Hu GDF15, Mu IgG1Fc_Fxa_Mu GDF15 and Mu IgG1Fc_Fxa_Cyno GDF15 were 19 resonance units (RU), 22 RU and 19 RU respectively. Flow cell 1 was used as a reference flow cell. […] The dissociation was monitored for 1200 seconds and the surface was regenerated with 10 mM Glycine pH 1.7. Binding affinities and rate constants were determined by fitting the resulting sensorgram data to a 1:1 Langmuir model in BIAcore T200 Evaluation software version 2.0 (GE Healthcare).
(In SPR one partner is held on a chip, and binding of the other changes the refractive index at the surface.)

For assay [2], the target named is T1, Mouse Fc-human GDF15 (Mu IgG1Fc_Fxa_Hu …). Nature of the assay: SPR BIAcore T200, 37C; Fc-GDF15 captured, monomeric Fc-Fab as analyte; human GDF15 ligand (Mu IgG1Fc_Fxa_Hu GDF15), second run.
Description: as §1

Assay [3] deals with Mouse Fc-mouse GDF15 (Mu IgG1Fc_Fxa_Mu GDF15) (mouse). The assay is described as follows: SPR BIAcore T200, 37C; Fc-GDF15 captured, monomeric Fc-Fab as analyte.
The next assay concerns the target T2, human BMP9 (human, UniProt Q9UK05 320-429).
T2 construct: Bought
T2 sequence (looked up): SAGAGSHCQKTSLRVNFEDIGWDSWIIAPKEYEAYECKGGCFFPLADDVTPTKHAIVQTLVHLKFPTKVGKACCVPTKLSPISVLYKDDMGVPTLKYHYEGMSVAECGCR
Nature of the assay: BLI, OctetRED 384; family member amine coupled to AR2G biosensor. The method, then: (§2) To assess the binding specificity of GDF15_001 to human GDF15, GDF15_001 binding to additional TGFB family members was tested. Analysis was carried out on an Octet Red instrument.
(§3) The TGFB family members were diluted to 10 ug/ml in 10 mM Sodium Acetate pH 4.5 and amine coupled onto AR2G biosensors (catalogue #18-5092, ForteBio) according to the manufacturer's instructions. Monomeric GDF15_001 was diluted to 200 nM in kinetics buffer (catalogue #18-5032 ForteBio). Octet assays were conducted at room temperature with an association time of 300 seconds and a dissociation time of 180 seconds. The data was double referenced (Myszka, D., J. Mol. Recognit 1999; 279-284) and analyzed with Octet Data Analysis software version 8.1 (ForteBio).
(In general: Biolayer interferometry detects binding as a change in optical thickness at a sensor tip.)

The next assay concerns the target T3, human GDF8 (human, UniProt O14793 267-375, limits assumed).
T3 construct: In-house material
T3 sequence (looked up): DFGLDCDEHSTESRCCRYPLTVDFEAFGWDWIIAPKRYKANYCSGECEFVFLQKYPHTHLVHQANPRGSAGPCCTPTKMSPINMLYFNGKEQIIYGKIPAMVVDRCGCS
The assay is described as above. The method, then: as §2, §3

The target of another assay is T4, human Inhibin A (human, UniProt P05111 233-366; P08476 311-426).
T4 construct: Bought
T4 sequence (looked up) 1: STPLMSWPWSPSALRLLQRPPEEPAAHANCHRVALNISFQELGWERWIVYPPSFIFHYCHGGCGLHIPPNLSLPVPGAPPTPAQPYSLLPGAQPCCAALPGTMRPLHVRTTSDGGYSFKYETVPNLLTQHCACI
T4 sequence (looked up) 2: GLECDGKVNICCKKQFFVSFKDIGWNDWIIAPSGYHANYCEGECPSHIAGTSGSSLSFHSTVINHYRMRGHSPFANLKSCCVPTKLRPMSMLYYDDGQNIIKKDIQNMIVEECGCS
The description is as above. How it is done:
as §2, §3

The next assay has as its target T5, human BMP11 (human, UniProt O95390 299-407).
T5 construct: Bought; also called GDF-11
T5 sequence (looked up): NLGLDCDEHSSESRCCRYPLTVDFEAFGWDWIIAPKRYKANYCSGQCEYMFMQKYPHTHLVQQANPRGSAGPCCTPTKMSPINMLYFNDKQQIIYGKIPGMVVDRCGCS
Described as above. How it is done: as §2, §3

For another assay, the target named is T6, human BMP6 (human, UniProt P22004 382-513, limits assumed).
T6 construct: Bought
T6 sequence (looked up): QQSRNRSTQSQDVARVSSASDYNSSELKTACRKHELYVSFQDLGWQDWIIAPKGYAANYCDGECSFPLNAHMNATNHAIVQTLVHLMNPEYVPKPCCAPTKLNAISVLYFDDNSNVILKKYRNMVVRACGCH
The description is as above. How it is done: as §2, §3

By Kd is commonly meant the equilibrium constant for the complex coming apart. By koff is commonly meant the rate constant with which the complex falls apart. Low readings indicate slow dissociation, high ones fast dissociation. The kon is the second-order rate constant of association. Higher therefore signals fast association.

B1: monomeric GDF15_001 (CH23LS-GBT-GDF15_001) (Fab, V domains shown)
VH: QVQLVQSGAEVKKPGSSVKVSCKASGYTFSSYNIDWVRQAPGQGLEWMGGINPIFGTAFYNQKFQGRVTITADESTSTAYMELSSLRSEDTAVYYCAREAITTVGAMDHWGQGTLVTVSS
VL: EIVLTQSPATLSLSPGERATLSCRTSQSVHNYLAWYQQKPGQAPRLLIYDASTRADGIPARFSGSGSGTDFTLTISSLEPEDFAVYYCQQFWSWPWTFGQGTKVEIK
notes: Monovalent 'monomeric Fc-Fab' of GDF15_001 made to measure KD without avidity; also called CH23LS-GDF15_001; monomeric Fc-Fab
In the case of B1, the values for the Kd in assay [1] and in assay [2] were 0.0149 nM and 0.0276 nM, respectively. Moreover, in assay [3], the T½ min is 3.39 min and 3.73 min. In addition, the koff in assay [3] is 0.00341 s⁻¹ and 0.0031 s⁻¹. Also, the on-rate constant (kon) in assay [3] was 1.62e+06 M⁻¹ s⁻¹ and 1.7e+06 M⁻¹ s⁻¹. For the same molecule, the binding result in the assay with human BMP9, with human GDF8, with human Inhibin A, with human BMP11 and with human BMP6 was “no binding (tested: 200 nM)” throughout.
